Measurements as given in patent US20230189844.

Tests used:
[1] = target: T1, Soy Bowman-Birk Inhibitor (UniProt P01055)
T1 sequence: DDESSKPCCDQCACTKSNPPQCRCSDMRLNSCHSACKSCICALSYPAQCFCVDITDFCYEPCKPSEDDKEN

[2] = target: T2, Soy Kunitz Inhibitor (Trypsin Inhibitor from soybean) (UniProt P01070)
T2 sequence: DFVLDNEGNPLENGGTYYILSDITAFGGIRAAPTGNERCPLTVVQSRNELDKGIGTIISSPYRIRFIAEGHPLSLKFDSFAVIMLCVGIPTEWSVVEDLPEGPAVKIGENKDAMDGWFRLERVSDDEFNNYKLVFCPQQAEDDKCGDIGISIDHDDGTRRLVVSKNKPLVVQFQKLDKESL

[3] = target: Soybean agglutinin (SBA) (UniProt P05046)
Sequence of Soybean agglutinin (SBA) (P05046 33-285): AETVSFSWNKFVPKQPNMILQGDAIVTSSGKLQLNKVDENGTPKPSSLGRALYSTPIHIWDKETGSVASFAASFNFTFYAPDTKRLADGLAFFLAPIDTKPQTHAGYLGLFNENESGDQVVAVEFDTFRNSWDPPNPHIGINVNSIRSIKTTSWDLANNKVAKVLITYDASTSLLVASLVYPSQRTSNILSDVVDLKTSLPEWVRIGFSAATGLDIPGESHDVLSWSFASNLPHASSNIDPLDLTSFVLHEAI

Substance: Protease derived from Bacillus sp. NCIMB 40484
- % of anti-nutritional factor degraded (SDS-PAGE band disappearance, 2 hours, 37° C., pH 6.5) [1]: 41%
- % of anti-nutritional factor degraded (SDS-PAGE band disappearance, 2 hours, 37° C., pH 6.5) [2]: 100%
- % of anti-nutritional factor degraded (SDS-PAGE band disappearance, 2 hours, 37° C., pH 6.5) [3]: 21%
